Measurements reported in publication doi:10.1101/2023.04.17.537135 (bioRxiv, 2023).

T1: His-tagged AHL10 S314D (phosphomimic) (Arabidopsis thaliana, UniProt O22812 1-351, S314D)
T1 sequence (looked up): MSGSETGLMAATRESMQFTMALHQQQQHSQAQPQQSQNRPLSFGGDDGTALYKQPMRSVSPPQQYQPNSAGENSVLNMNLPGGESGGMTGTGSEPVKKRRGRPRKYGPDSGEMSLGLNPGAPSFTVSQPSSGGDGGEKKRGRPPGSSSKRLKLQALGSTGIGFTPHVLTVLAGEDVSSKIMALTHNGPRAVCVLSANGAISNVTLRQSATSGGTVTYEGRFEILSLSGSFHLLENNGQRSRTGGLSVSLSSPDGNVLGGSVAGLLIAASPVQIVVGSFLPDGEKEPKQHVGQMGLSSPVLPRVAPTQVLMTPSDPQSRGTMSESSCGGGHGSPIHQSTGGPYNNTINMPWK

T2: His-tagged AHL10, non-mutated wild type (Arabidopsis thaliana, UniProt O22812 1-351)
T2 sequence (looked up): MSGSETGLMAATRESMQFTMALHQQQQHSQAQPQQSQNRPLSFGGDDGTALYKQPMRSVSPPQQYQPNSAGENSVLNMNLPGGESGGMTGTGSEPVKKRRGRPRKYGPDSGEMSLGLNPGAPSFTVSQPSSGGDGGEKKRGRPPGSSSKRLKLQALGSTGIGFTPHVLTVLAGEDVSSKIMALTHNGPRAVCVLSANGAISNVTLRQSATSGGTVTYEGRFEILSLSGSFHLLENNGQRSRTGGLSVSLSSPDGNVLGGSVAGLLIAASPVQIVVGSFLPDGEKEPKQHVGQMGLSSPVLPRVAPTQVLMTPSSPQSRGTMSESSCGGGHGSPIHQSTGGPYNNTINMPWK

T3: His-tagged AHL10 S313D (phosphomimic) (Arabidopsis thaliana, UniProt O22812 1-351, S313D)
T3 sequence (looked up): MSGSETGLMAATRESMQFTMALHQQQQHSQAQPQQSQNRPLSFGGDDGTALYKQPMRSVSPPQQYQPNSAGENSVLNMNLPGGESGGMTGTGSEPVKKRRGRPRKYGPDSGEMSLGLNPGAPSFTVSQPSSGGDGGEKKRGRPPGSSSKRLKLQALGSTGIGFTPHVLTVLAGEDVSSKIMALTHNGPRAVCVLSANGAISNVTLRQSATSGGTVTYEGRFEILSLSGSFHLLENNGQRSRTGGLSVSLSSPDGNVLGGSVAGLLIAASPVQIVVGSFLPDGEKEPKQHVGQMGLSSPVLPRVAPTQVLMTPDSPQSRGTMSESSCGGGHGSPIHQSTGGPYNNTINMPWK


Tests used:
Test in all cases: pull-down
[1] = target: T1, His-tagged AHL10 S314D (phosphomimic)
[2] = target: T2, His-tagged AHL10, non-mutated wild type
[3] = target: T3, His-tagged AHL10 S313D (phosphomimic)

| binding result [1] | binding result [2] | binding result [3] | Binder |
| --- | --- | --- | --- |
| binds | binds | binds | GST-tagged RRP6L1 C-terminal 337 amino acids (domain or fragment, Arabidopsis thaliana, UniProt Q0WVE8 301-637, looked up) YKRSYDVCMQLYEKELWTRDSYLHVYGVQTGNLNAVQLSIVAGLCEWRDRIARADDESTGYVLPNKTLFDIAKEMPIVVAQLRRLLKSKLPYLERNFDAVISVIRRSMQNAAAFEPVVQSLKDRRPETVVEMNIEPKIEKTDTGASASSLSLEKVCVDDSKKQSSGFGVLPLKRKLESDKTVVEKNIEPKIEKTGTEASASSLSSKKVCVDDSKKQSSGFGVLLSKRKFESDNKVKEEVKVSKSKPDKVIIVVDDDDDDDDDESYEQSTKAADALDRVSETPSKGSPSLTQKPKTCNTEVIVLDDDDDSESREDEDMRRRSEKHRRFMNMKRGFLNI |
| binds | binds | binds | GST-tagged RRP6L1 N-terminal 300 amino acids (domain or fragment, Arabidopsis thaliana, UniProt Q0WVE8 1-300, looked up) MRFDDPMDEFKRNRKMEEDSKKVIDVKVAESDKGFAKFGKAEVPFHIPTLTKPQEEYKILVDNANNPFEHVLLEKSEDGLRFIHPLEELSVMDFVDRNLSEMRPVKPLPLEETPFKLVEEVKDLEDLAAALQSVEEFAVDLEHNQYRTFQGLTCLMQISTRTEDYIVDIFKLWDHIGPYLRELFKDPKKKKVIHGADRDIIWLQRDFGIYVCNLFDTGQASRVLKLERNSLEFLLKHYCGVAANKEYQKADWRIRPLPDVMKRYAREDTHYLLYIYDVMRMELHTMAKEDEQSDSPLVEV |
